Starred links: 1 amine or outer side, 2 acyl side, 3 side chain; linkers in the order of their positions; H or OH if unused. Non-standard residues stand in square brackets, D forms with d. Primed or numbered codes have the meaning given here. *: point of attachment. dBip = N[C@H](Cc1ccc(-c2ccccc2)cc1)C(=O)O; Oic = O=C(O)[C@@H]1C[C@@H]2CCCC[C@@H]2N1; Phe(4-Cl) = N[C@@H](Cc1ccc(Cl)cc1)C(=O)O; Phe(4-I) = N[C@@H](Cc1ccc(I)cc1)C(=O)O; γGlu = O=C(O)[C@H](CCC(=O)[*:2])N[*:1]; Tridecanoyl = CCCCCCCCCCCCC(=O)*; hArg = N=C(N)NCCCC[C@H](N)C(=O)O; Cha = N[C@@H](CC1CCCCC1)C(=O)O; NMeL = CN[C@@H](CC(C)C)C(=O)O; Nle = CCCC[C@H](N)C(=O)O; Pip′ = not defined here; AEEA = NCCOCCOCC(=O)O

Assay [1] concerns the target T1, rat APJ receptor (rat, UniProt Q9JHG3 1-377).
T1 sequence (looked up): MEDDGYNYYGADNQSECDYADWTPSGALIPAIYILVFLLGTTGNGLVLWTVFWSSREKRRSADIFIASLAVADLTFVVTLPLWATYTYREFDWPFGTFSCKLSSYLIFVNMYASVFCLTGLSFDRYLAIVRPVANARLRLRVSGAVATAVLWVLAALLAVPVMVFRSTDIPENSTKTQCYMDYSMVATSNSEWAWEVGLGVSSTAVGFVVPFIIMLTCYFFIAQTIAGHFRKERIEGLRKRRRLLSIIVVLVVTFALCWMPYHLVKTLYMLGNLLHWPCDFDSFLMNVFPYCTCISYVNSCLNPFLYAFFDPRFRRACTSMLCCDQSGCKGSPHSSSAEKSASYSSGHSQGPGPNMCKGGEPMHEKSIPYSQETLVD
In words: cell-based or functional assay.

Assay [2] concerns the target T2, human APJ receptor (human, UniProt P35414 1-380).
T2 sequence (looked up): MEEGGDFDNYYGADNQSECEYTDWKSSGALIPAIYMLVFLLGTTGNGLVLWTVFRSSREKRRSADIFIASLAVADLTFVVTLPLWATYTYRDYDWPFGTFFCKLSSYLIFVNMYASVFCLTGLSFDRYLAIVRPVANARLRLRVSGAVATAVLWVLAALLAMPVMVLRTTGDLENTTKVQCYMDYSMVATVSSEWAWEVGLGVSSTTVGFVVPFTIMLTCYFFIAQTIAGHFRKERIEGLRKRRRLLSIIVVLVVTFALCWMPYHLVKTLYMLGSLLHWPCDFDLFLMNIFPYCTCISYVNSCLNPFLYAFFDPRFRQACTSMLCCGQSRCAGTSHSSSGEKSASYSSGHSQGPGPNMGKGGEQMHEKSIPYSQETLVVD
Description: cell-based or functional assay.

B1: Apelin polypeptide SEQ ID NO: 348 (peptide)
peptide: Tridecanoyl-[γGlu][AEEA][AEEA]RQ[Nle]P[hArg][Cha]AAKG[Oic][Nle]P[Phe(4-Cl)]-OH
SMILES: CCCCCCCCCCCCC(=O)N[C@@H](CCC(=O)NCCOCCOCC(=O)NCCOCCOCC(=O)N[C@@H](CCCNC(=N)N)C(=O)N[C@@H](CCC(N)=O)C(=O)N[C@@H](CCCC)C(=O)N1CCC[C@H]1C(=O)N[C@@H](CCCCNC(=N)N)C(=O)N[C@@H](CC1CCCCC1)C(=O)N[C@@H](C)C(=O)N[C@@H](C)C(=O)N[C@@H](CCCCN)C(=O)NCC(=O)N1[C@H](C(=O)N[C@@H](CCCC)C(=O)N2CCC[C@H]2C(=O)N[C@@H](Cc2ccc(Cl)cc2)C(=O)O)C[C@@H]2CCCC[C@@H]21)C(=O)O
For the molecule B1, the “EC50 Rat APJ Receptor (GTPγS assay)” value in assay [1] was 7.46 nM. The “EC50 Human APJ Receptor (GTPγS assay)” value in assay [2] stood at 4.92 nM.

B2: Apelin polypeptide SEQ ID NO: 339 (peptide)
peptide: Tridecanoyl-[γGlu][AEEA][AEEA]RQ[Nle]P[hArg][Cha]SHKG[Oic][Nle]P[Phe(4-Cl)]-OH
SMILES: CCCCCCCCCCCCC(=O)N[C@@H](CCC(=O)NCCOCCOCC(=O)NCCOCCOCC(=O)N[C@@H](CCCNC(=N)N)C(=O)N[C@@H](CCC(N)=O)C(=O)N[C@@H](CCCC)C(=O)N1CCC[C@H]1C(=O)N[C@@H](CCCCNC(=N)N)C(=O)N[C@@H](CC1CCCCC1)C(=O)N[C@@H](CO)C(=O)N[C@@H](Cc1c[nH]cn1)C(=O)N[C@@H](CCCCN)C(=O)NCC(=O)N1[C@H](C(=O)N[C@@H](CCCC)C(=O)N2CCC[C@H]2C(=O)N[C@@H](Cc2ccc(Cl)cc2)C(=O)O)C[C@@H]2CCCC[C@@H]21)C(=O)O
For the molecule B2, the “EC50 Rat APJ Receptor (GTPγS assay)” value in assay [1] is 4.53 nM. Moreover, the “EC50 Human APJ Receptor (GTPγS assay)” value in assay [2] came to 2.55 nM.

B3: Apelin polypeptide SEQ ID NO: 350 (peptide)
peptide: Tridecanoyl-[γGlu][AEEA][AEEA]RQRP[Nle][Cha]SAKG[Oic][Nle]P[Phe(4-Cl)]-OH
SMILES: CCCCCCCCCCCCC(=O)N[C@@H](CCC(=O)NCCOCCOCC(=O)NCCOCCOCC(=O)N[C@@H](CCCNC(=N)N)C(=O)N[C@@H](CCC(N)=O)C(=O)N[C@@H](CCCNC(=N)N)C(=O)N1CCC[C@H]1C(=O)N[C@@H](CCCC)C(=O)N[C@@H](CC1CCCCC1)C(=O)N[C@@H](CO)C(=O)N[C@@H](C)C(=O)N[C@@H](CCCCN)C(=O)NCC(=O)N1[C@H](C(=O)N[C@@H](CCCC)C(=O)N2CCC[C@H]2C(=O)N[C@@H](Cc2ccc(Cl)cc2)C(=O)O)C[C@@H]2CCCC[C@@H]21)C(=O)O
For B3, the “EC50 Rat APJ Receptor (GTPγS assay)” value in assay [1] was 0.624 nM. Moreover, the “EC50 Human APJ Receptor (GTPγS assay)” value in assay [2] came out at 0.285 nM.
On the same counts, the results for Tridecanoyl-[γGlu][AEEA][AEEA][dR]QRP[hArg][NMeL]SHKG[Pip′][Phe(4-I)]P[dBip]-OH [Apelin polypeptide SEQ ID NO: 565] are 2.82 nM and 1.02 nM.

B4: Apelin polypeptide SEQ ID NO: 351 (peptide)
peptide: Tridecanoyl-[γGlu][AEEA][AEEA]RQRP[hArg][Cha]AA[Nle]G[Oic][Nle]P[Phe(4-Cl)]-OH
SMILES: CCCCCCCCCCCCC(=O)N[C@@H](CCC(=O)NCCOCCOCC(=O)NCCOCCOCC(=O)N[C@@H](CCCNC(=N)N)C(=O)N[C@@H](CCC(N)=O)C(=O)N[C@@H](CCCNC(=N)N)C(=O)N1CCC[C@H]1C(=O)N[C@@H](CCCCNC(=N)N)C(=O)N[C@@H](CC1CCCCC1)C(=O)N[C@@H](C)C(=O)N[C@@H](C)C(=O)N[C@@H](CCCC)C(=O)NCC(=O)N1[C@H](C(=O)N[C@@H](CCCC)C(=O)N2CCC[C@H]2C(=O)N[C@@H](Cc2ccc(Cl)cc2)C(=O)O)C[C@@H]2CCCC[C@@H]21)C(=O)O
For the molecule B4, in assay [1], the “EC50 Rat APJ Receptor (GTPγS assay)” value was 1.8 nM. The “EC50 Human APJ Receptor (GTPγS assay)” value in assay [2] was 1.59 nM.
Turning to Tridecanoyl-[γGlu][AEEA][AEEA]RQ[Nle]P[hArg][Cha]SAKG[Pip′][Nle]P[Phe(4-Cl)]-OH [Apelin polypeptide SEQ ID NO: 564], the “EC50 Rat APJ Receptor (GTPγS assay)” value in assay [1] was found to be 1.49 nM. Moreover, the “EC50 Human APJ Receptor (GTPγS assay)” value in assay [2] was 0.331 nM.

B5: Apelin polypeptide SEQ ID NO: 335 (peptide)
peptide: Tridecanoyl-[γGlu][AEEA][AEEA]RQRP[Nle][Cha]SHKG[Oic][Nle]P[Phe(4-Cl)]-OH
SMILES: CCCCCCCCCCCCC(=O)N[C@@H](CCC(=O)NCCOCCOCC(=O)NCCOCCOCC(=O)N[C@@H](CCCNC(=N)N)C(=O)N[C@@H](CCC(N)=O)C(=O)N[C@@H](CCCNC(=N)N)C(=O)N1CCC[C@H]1C(=O)N[C@@H](CCCC)C(=O)N[C@@H](CC1CCCCC1)C(=O)N[C@@H](CO)C(=O)N[C@@H](Cc1c[nH]cn1)C(=O)N[C@@H](CCCCN)C(=O)NCC(=O)N1[C@H](C(=O)N[C@@H](CCCC)C(=O)N2CCC[C@H]2C(=O)N[C@@H](Cc2ccc(Cl)cc2)C(=O)O)C[C@@H]2CCCC[C@@H]21)C(=O)O
Regarding B5, the “EC50 Rat APJ Receptor (GTPγS assay)” value in assay [1] was determined as 0.964 nM. Further, the “EC50 Human APJ Receptor (GTPγS assay)” value in assay [2] is 0.315 nM.

B6: Apelin polypeptide SEQ ID NO: 345 (peptide)
peptide: Tridecanoyl-[γGlu][AEEA][AEEA]RQRP[Nle][Cha]AAKG[Oic][Nle]P[Phe(4-Cl)]-OH
SMILES: CCCCCCCCCCCCC(=O)N[C@@H](CCC(=O)NCCOCCOCC(=O)NCCOCCOCC(=O)N[C@@H](CCCNC(=N)N)C(=O)N[C@@H](CCC(N)=O)C(=O)N[C@@H](CCCNC(=N)N)C(=O)N1CCC[C@H]1C(=O)N[C@@H](CCCC)C(=O)N[C@@H](CC1CCCCC1)C(=O)N[C@@H](C)C(=O)N[C@@H](C)C(=O)N[C@@H](CCCCN)C(=O)NCC(=O)N1[C@H](C(=O)N[C@@H](CCCC)C(=O)N2CCC[C@H]2C(=O)N[C@@H](Cc2ccc(Cl)cc2)C(=O)O)C[C@@H]2CCCC[C@@H]21)C(=O)O
For B6, in assay [1], the “EC50 Rat APJ Receptor (GTPγS assay)” value was 5.79 nM. In addition, the “EC50 Human APJ Receptor (GTPγS assay)” value in assay [2] was found to be 4.51 nM.

B7: Apelin polypeptide SEQ ID NO: 340 (peptide)
peptide: Tridecanoyl-[γGlu][AEEA][AEEA]RQRP[hArg][Cha]SA[Nle]G[Oic][Nle]P[Phe(4-Cl)]-OH
SMILES: CCCCCCCCCCCCC(=O)N[C@@H](CCC(=O)NCCOCCOCC(=O)NCCOCCOCC(=O)N[C@@H](CCCNC(=N)N)C(=O)N[C@@H](CCC(N)=O)C(=O)N[C@@H](CCCNC(=N)N)C(=O)N1CCC[C@H]1C(=O)N[C@@H](CCCCNC(=N)N)C(=O)N[C@@H](CC1CCCCC1)C(=O)N[C@@H](CO)C(=O)N[C@@H](C)C(=O)N[C@@H](CCCC)C(=O)NCC(=O)N1[C@H](C(=O)N[C@@H](CCCC)C(=O)N2CCC[C@H]2C(=O)N[C@@H](Cc2ccc(Cl)cc2)C(=O)O)C[C@@H]2CCCC[C@@H]21)C(=O)O
Regarding B7, the “EC50 Rat APJ Receptor (GTPγS assay)” value in assay [1] was 0.676 nM. Also, the “EC50 Human APJ Receptor (GTPγS assay)” value in assay [2] is 0.345 nM.

B8: Apelin polypeptide SEQ ID NO: 344 (peptide)
peptide: Tridecanoyl-[γGlu][AEEA][AEEA]RQRP[Nle][Cha]AHKG[Oic][Nle]P[Phe(4-Cl)]-OH
SMILES: CCCCCCCCCCCCC(=O)N[C@@H](CCC(=O)NCCOCCOCC(=O)NCCOCCOCC(=O)N[C@@H](CCCNC(=N)N)C(=O)N[C@@H](CCC(N)=O)C(=O)N[C@@H](CCCNC(=N)N)C(=O)N1CCC[C@H]1C(=O)N[C@@H](CCCC)C(=O)N[C@@H](CC1CCCCC1)C(=O)N[C@@H](C)C(=O)N[C@@H](Cc1c[nH]cn1)C(=O)N[C@@H](CCCCN)C(=O)NCC(=O)N1[C@H](C(=O)N[C@@H](CCCC)C(=O)N2CCC[C@H]2C(=O)N[C@@H](Cc2ccc(Cl)cc2)C(=O)O)C[C@@H]2CCCC[C@@H]21)C(=O)O
Turning to B8, in assay [1], the “EC50 Rat APJ Receptor (GTPγS assay)” value came to 5.58 nM. Further, in assay [2], the “EC50 Human APJ Receptor (GTPγS assay)” value was 3.46 nM.

B9: Apelin polypeptide SEQ ID NO: 336 (peptide)
peptide: Tridecanoyl-[γGlu][AEEA][AEEA]RQRP[hArg][Cha]SH[Nle]G[Oic][Nle]P[Phe(4-Cl)]-OH
SMILES: CCCCCCCCCCCCC(=O)N[C@@H](CCC(=O)NCCOCCOCC(=O)NCCOCCOCC(=O)N[C@@H](CCCNC(=N)N)C(=O)N[C@@H](CCC(N)=O)C(=O)N[C@@H](CCCNC(=N)N)C(=O)N1CCC[C@H]1C(=O)N[C@@H](CCCCNC(=N)N)C(=O)N[C@@H](CC1CCCCC1)C(=O)N[C@@H](CO)C(=O)N[C@@H](Cc1c[nH]cn1)C(=O)N[C@@H](CCCC)C(=O)NCC(=O)N1[C@H](C(=O)N[C@@H](CCCC)C(=O)N2CCC[C@H]2C(=O)N[C@@H](Cc2ccc(Cl)cc2)C(=O)O)C[C@@H]2CCCC[C@@H]21)C(=O)O
As for B9, the “EC50 Rat APJ Receptor (GTPγS assay)” value in assay [1] stood at 0.986 nM. Also, in assay [2], the “EC50 Human APJ Receptor (GTPγS assay)” value was 0.714 nM.

B10: Apelin polypeptide SEQ ID NO: 343 (peptide)
peptide: Tridecanoyl-[γGlu][AEEA][AEEA]RQ[Nle]P[hArg][Cha]SAKG[Oic][Nle]P[Phe(4-Cl)]-OH
SMILES: CCCCCCCCCCCCC(=O)N[C@@H](CCC(=O)NCCOCCOCC(=O)NCCOCCOCC(=O)N[C@@H](CCCNC(=N)N)C(=O)N[C@@H](CCC(N)=O)C(=O)N[C@@H](CCCC)C(=O)N1CCC[C@H]1C(=O)N[C@@H](CCCCNC(=N)N)C(=O)N[C@@H](CC1CCCCC1)C(=O)N[C@@H](CO)C(=O)N[C@@H](C)C(=O)N[C@@H](CCCCN)C(=O)NCC(=O)N1[C@H](C(=O)N[C@@H](CCCC)C(=O)N2CCC[C@H]2C(=O)N[C@@H](Cc2ccc(Cl)cc2)C(=O)O)C[C@@H]2CCCC[C@@H]21)C(=O)O
Turning to B10, the “EC50 Rat APJ Receptor (GTPγS assay)” value in assay [1] was 1.24 nM. For the same molecule, the “EC50 Human APJ Receptor (GTPγS assay)” value in assay [2] worked out at 1.4 nM.

The record behind these values is US10941182 (Amgen, dated 2021).
